Laboratory results from patent publication US20090104205A1 (AstraZeneca / MedImmune, published 2009).

Tests used:
[1] = biological target: T1, C-terminal truncated RSV F protein (secreted, from recombinant baculovirus) (respiratory syncytial virus, UniProt P03420 26-524); assay: SPR (BIAcore), F protein amine-coupled, Kd = kd/ka
T1 construct: also called immobilized F protein

[2] = biological target: T1, C-terminal truncated RSV F protein …; assay: SPR (BIAcore), F protein amine-coupled, Mab injected at 25-300 nM
[3] = biological target: T2, RSV F protein (native, from RSV virus or RSV infected HEP2 cell lysate) (respiratory syncytial virus, UniProt P03420 26-574); assay: capture ELISA: RSV infected HEP2 cell lysate captured on Mu1331 antibody; double reciprocal plot of OD vs antibody concentration
T2 construct: In the ELISA the antigen was whatever the Mu1331 anti-F antibody captured from the infected cell lysate; also called RSV F antigen; RSV F glycoprotein
T2 sequence (P03420 26-574): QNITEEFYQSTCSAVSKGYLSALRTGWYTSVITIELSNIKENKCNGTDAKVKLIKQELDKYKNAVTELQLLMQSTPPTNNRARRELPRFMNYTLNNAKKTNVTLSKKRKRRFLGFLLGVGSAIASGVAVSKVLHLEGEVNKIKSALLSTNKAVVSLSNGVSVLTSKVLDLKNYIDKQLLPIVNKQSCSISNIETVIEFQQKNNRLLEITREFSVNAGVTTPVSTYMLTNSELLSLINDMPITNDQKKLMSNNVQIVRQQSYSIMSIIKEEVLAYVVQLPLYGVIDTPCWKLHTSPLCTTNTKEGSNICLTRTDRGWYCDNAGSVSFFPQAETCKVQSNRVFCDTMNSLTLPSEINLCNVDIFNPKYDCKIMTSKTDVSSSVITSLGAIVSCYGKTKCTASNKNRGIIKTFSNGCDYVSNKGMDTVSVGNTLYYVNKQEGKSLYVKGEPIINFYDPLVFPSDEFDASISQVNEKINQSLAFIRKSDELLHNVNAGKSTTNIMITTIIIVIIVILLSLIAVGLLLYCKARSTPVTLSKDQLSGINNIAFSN

T1 sequence (P03420 26-524): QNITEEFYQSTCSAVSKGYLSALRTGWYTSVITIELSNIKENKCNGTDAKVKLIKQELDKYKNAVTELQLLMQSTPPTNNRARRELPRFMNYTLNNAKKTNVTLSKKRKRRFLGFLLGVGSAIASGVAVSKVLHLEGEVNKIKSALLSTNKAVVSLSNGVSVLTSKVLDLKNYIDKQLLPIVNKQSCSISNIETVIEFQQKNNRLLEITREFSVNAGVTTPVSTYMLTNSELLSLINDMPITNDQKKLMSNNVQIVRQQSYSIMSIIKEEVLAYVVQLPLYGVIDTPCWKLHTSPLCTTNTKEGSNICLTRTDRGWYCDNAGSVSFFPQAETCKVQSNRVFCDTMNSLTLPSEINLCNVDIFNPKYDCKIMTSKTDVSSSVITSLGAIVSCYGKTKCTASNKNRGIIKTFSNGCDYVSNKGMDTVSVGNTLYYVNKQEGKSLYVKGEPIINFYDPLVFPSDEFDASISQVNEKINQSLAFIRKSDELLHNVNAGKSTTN

B1: murine monoclonal antibody MAb 1129 (antibody, V domains shown)
VH: QVELQESGPGILQPSQTLSLTCSFSGFSLSTSGMSVGWIRQPSGEGLEWLADIWWDDKKDYNPSLKSRKTISKDTSSNQVFLKITGVDTADTATYYCARSMITNWYFDVWGAGTTVTVSS
VL: DIQLTQSPAIMSASPGEKVTMTCSASSSVGYMHWYQQKSSTSPKLWIYDTSKLASGVPGRFSGSGSGNSYSLTISSIQAEDVATYYCFQGSGYPFTFGGGTKLEIK
notes: also called M1129
[1]
  Kd: 11.4 nM
[2]
  koff: 0.0004 s⁻¹
  kon: 35000 M⁻¹ s⁻¹
  t1/2 (dissociation half-life): 0.48 h

B2: murine monoclonal antibody MAb 1308F (antibody, V domains shown)
VH: EVQKQQSGAELVRPGALVKLSCKASGFNIKDYYIYWVKQRPEQGLEWIGWIDPENGNTVFDPLFQGKASITSDTSSNTAYLQLSSLTSEDTAVYYCAYYGTSSFDFWGQGTTLTVSS
VL: DIKMTQSPSSMYVSLGERVTITCKASQDINRYLNWFQQKPGKSPKTLIHRANRLVDGVPSRFSGSGSGQEYSLTISSLEFEDMGIYYCLQFHEFPYTFGGGTKLEIL
notes: also called M1308F; Mu1308F
[1]
  Kd: 1.1 nM
[2]
  koff: 3.8e-05 s⁻¹
  kon: 35000 M⁻¹ s⁻¹
  t1/2 (dissociation half-life): 5.1 h

B3: humanized 1308F (CDR-grafted anti-RSV F antibody, human IgG1/kappa) (antibody, V domains shown)
VH: QVQLVQSGAEVKKPGASVKVSCKASGFNIKDYYIYWVRQAPGQGLEWIGWIDPENGNTVFDPKFNGRVTMTRDTSTSTVYMELSSLRSEDTAVYYCAYYGTSSFDFWGQGTTLTVSS
VL: DIQMTQSPSTLSASVGDRVTITCKASQDINRYLNWYQQKPGKAPKLLIYRANRLVDGVPSRFSGSGSGTEFTLTISSLQPDDFATYYCLQFHEFPYTFGGGTKLEIL
notes: also called H1308F; Hu1308F
[1]
  Kd: 2.5 nM
[2]
  koff: 5.5e-05 s⁻¹
  kon: 22000 M⁻¹ s⁻¹
  t1/2 (dissociation half-life): 3.5 h

B4: humanized 1129 (CDR-grafted anti-RSV F antibody, human IgG1/kappa) (antibody, V domains shown)
VH: QVTLRESGPALVKPTQTLTLTCTFSGFSLSTSGMSVGWIRQPPGKALEWLADIWWDDKKDYNPSLKSRLTISKDTSKNQVVLKVTNMDPADTATYYCARSMITNWYFDVWGAGTTVTVSS
VL: DIQMTQSPSTLSASVGDRVTITCKCQLSVGYMHWYQQKPGKAPKLWIYDTSKLASGVPSRFSGSGSGTEFTLTISSLQPDDFATYYCFQGSGYPFTFGGGTKLEIK
notes: also called H1129; Hu1129
[1]
  Kd: 1.4 nM
[2]
  koff: 6.9e-05 s⁻¹
  kon: 49000 M⁻¹ s⁻¹
  t1/2 (dissociation half-life): 2.8 h
[3]
  Kd: 0.7 nM
